# Results reported in IntAct's records for PubMed 24141193.
# B1: Protein kinase doc (Escherichia phage P1), Q06259 (parent)
# chain: MRHISPEELIALHDANISRYGGLPGMSDPGRAEAIIGRVQARVAYEEITDLFEVSATYLVATARGHIFNDANKRTALNSALLFLRRNGVQVFDSPELADLTVGAATGEISVSSVADTLRRLYGSAE
# Variants of: B1
# Settings: with eftu1_ecoli tufA
row,Variant,effect of a mutation on the interaction
1,R64G,disrupting interaction strength
